Changes are numbered by the printed parent chain. Numbers in names are those of the source.
T1: TNFR1 (Homo sapiens, UniProt P19438)
T1 chain: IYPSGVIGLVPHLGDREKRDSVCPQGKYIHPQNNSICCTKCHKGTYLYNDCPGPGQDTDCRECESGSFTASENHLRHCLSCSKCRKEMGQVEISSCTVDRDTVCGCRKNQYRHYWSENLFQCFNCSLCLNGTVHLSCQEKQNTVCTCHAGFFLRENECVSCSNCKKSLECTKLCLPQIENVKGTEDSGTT

B1: A105E (designed binder)
chain: MTLQELLREEALRRAEAEAFRYALELLAEKFPEQKEYLLDLAEEIESQIRSLSGVDVEDVRKFLDKEWAWVKELLAEHPAELAEVEAARAARLAELRAEVEAKVEA
B2: R8W (designed binder)
chain: B1 chain with R8W, E105A
B3: F20L (designed binder)
chain: B1 chain with F20L, E105A
B4: R50D (designed binder)
chain: B1 chain with R50D, E105A
B5: A90N (designed binder)
chain: B1 chain with A90N, E105A
B6: A91R (designed binder)
chain: B1 chain with A91R, E105A
B7: L93I (designed binder)
chain: B1 chain with L93I, E105A
B8: V104K (designed binder)
chain: B1 chain with V104K, E105A
B9: I49S (designed binder)
chain: B1 chain with I49S, E105A
B10: A17E (designed binder)
chain: B1 chain with A17E, E105A
B11: L24S (designed binder)
chain: B1 chain with L24S, E105A
B12: D56N (designed binder)
chain: B1 chain with D56N, E105A
B13: A42L (designed binder)
chain: B1 chain with A42L, E105A
B14: A98V (designed binder)
chain: B1 chain with A98V, E105A
B15: E44P (designed binder)
chain: B1 chain with E44P, E105A
B16: R21V (designed binder)
chain: B1 chain with R21V, E105A
B17: A17Q (designed binder)
chain: B1 chain with A17Q, E105A
B18: E81S (designed binder)
chain: B1 chain with E81S, E105A
B19: G54D (designed binder)
chain: B1 chain with G54D, E105A
B20: E95G (designed binder)
chain: B1 chain with E95G, E105A
B21: E95W (designed binder)
chain: B1 chain with E95W, E105A
B22: L64E (designed binder)
chain: B1 chain with L64E, E105A
B23: L6W (designed binder)
chain: B1 chain with L6W, E105A
B24: L75C (designed binder)
chain: B1 chain with L75C, E105A
B25: V104L (designed binder)
chain: B1 chain with V104L, E105A
B26: E95S (designed binder)
chain: B1 chain with E95S, E105A
B27: Q48E (designed binder)
chain: B1 chain with Q48E, E105A
B28: H78Y (designed binder)
chain: B1 chain with H78Y, E105A
B29: V100R (designed binder)
chain: B1 chain with V100R, E105A
B30: D59S (designed binder)
chain: B1 chain with D59S, E105A
B31: L93V (designed binder)
chain: B1 chain with L93V, E105A
B32: A98P (designed binder)
chain: B1 chain with A98P, E105A
B33: L39K (designed binder)
chain: B1 chain with L39K, E105A
B34: A88R (designed binder)
chain: B1 chain with A88R, E105A
B35: A23H (designed binder)
chain: B1 chain with A23H, E105A
B36: L6S (designed binder)
chain: B1 chain with L6S, E105A
B37: D40V (designed binder)
chain: B1 chain with D40V, E105A
B38: L12F (designed binder)
chain: B1 chain with L12F, E105A
B39: L75H (designed binder)
chain: B1 chain with L75H, E105A
B40: D65S (designed binder)
chain: B1 chain with D65S, E105A
B41: E16L (designed binder)
chain: B1 chain with E16L, E105A
B42: V71C (designed binder)
chain: B1 chain with V71C, E105A
B43: I45Q (designed binder)
chain: B1 chain with I45Q, E105A
B44: L26T (designed binder)
chain: B1 chain with L26T, E105A
B45: E25K (designed binder)
chain: B1 chain with E25K, E105A
B46: E18P (designed binder)
chain: B1 chain with E18P, E105A
B47: E36Q (designed binder)
chain: B1 chain with E36Q, E105A
B48: R21K (designed binder)
chain: B1 chain with R21K, E105A
B49: M1L (designed binder)
chain: B1 chain with M1L, E105A
B50: A15T (designed binder)
chain: B1 chain with A15T, E105A
B51: S51N (designed binder)
chain: B1 chain with S51N, E105A
B52: E29V (designed binder)
chain: B1 chain with E29V, E105A
B53: L27C (designed binder)
chain: B1 chain with L27C, E105A
B54: A28I (designed binder)
chain: B1 chain with A28I, E105A
B55: E58H (designed binder)
chain: B1 chain with E58H, E105A

Target: T1, TNFR1
Experiment: yeast display SC50

Row | Binder | apparent Kd (screen)
1 | B1 | 593 pM
2 | B2 | 539 pM
3 | B3 | 593 pM
4 | B4 | 490 pM
5 | B5 | 653 pM
6 | B6 | 446 pM
7 | B7 | 539 pM
8 | B8 | 593 pM
9 | B9 | 539 pM
10 | B10 | 229 pM
11 | B11 | 869 pM
12 | B12 | 653 pM
13 | B13 | 2050 pM
14 | B14 | 490 pM
15 | B15 | 1160 pM
16 | B16 | 718 pM
17 | B17 | 277 pM
18 | B18 | 490 pM
19 | B19 | 13800 pM
20 | B20 | 653 pM
21 | B21 | 446 pM
22 | B22 | 5310 pM
23 | B23 | 3990 pM
24 | B24 | 653 pM
25 | B25 | 718 pM
26 | B26 | 539 pM
27 | B27 | 142 pM
28 | B28 | 653 pM

Row | Binder | apparent Kd (screen)
29 | B29 | 718 pM
30 | B30 | 539 pM
31 | B31 | 869 pM
32 | B32 | 539 pM
33 | B33 | 1160 pM
34 | B34 | 593 pM
35 | B35 | 1270 pM
36 | B36 | 4830 pM
37 | B37 | 5310 pM
38 | B38 | 593 pM
39 | B39 | 539 pM
40 | B40 | 790 pM
41 | B41 | 593 pM
42 | B42 | 653 pM
43 | B43 | 15200 pM
44 | B44 | 490 pM
45 | B45 | 446 pM
46 | B46 | 1050 pM
47 | B47 | 490 pM
48 | B48 | 593 pM
49 | B49 | 653 pM
50 | B50 | 490 pM
51 | B51 | 1690 pM
52 | B52 | 539 pM
53 | B53 | 539 pM
54 | B54 | 7780 pM
55 | B55 | 593 pM
